Laboratory results: US20160326237A1 (ANNEXON, published 2016)

Experiments:
mouse C1q [1] = target: T1, mouse C1q (mouse, UniProt P14106 26-253); test: BLI (OCTET), C1q immobilised, antibody 2.0 ug/ml
human C1q [2] = target: T2, human C1q (human, UniProt P02745 23-245; P02746 28-253; P02747 29-245); test: BLI (OCTET), C1q immobilised, antibody 2.0 ug/ml
T2 construct: Native C1q (about 460 kDa) holds several copies of each chain; also called hC1q; C1Q antigen

mouse C1q [3] = target: T1, mouse C1q; test: BLI (OCTET)
human C1q [4] = target: T2, human C1q; test: BLI (OCTET)

T1 sequence (chain, as listed by the source, chain 1 of 3): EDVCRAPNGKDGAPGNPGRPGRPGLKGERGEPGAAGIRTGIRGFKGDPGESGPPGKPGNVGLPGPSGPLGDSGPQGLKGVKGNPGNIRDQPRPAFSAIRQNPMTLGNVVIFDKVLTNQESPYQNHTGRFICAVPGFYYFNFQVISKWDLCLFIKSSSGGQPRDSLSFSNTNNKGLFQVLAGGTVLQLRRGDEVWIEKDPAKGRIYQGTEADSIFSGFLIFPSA
T1 sequence (P14106 26-253, chain 2 of 3): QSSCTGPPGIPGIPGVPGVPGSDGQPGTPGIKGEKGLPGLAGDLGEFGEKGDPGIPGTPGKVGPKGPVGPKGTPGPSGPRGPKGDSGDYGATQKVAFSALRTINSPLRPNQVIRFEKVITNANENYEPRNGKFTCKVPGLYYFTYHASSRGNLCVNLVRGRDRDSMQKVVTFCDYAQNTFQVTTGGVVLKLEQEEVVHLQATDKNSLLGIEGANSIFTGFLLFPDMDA
T1 sequence (chain, as listed by the source, chain 3 of 3): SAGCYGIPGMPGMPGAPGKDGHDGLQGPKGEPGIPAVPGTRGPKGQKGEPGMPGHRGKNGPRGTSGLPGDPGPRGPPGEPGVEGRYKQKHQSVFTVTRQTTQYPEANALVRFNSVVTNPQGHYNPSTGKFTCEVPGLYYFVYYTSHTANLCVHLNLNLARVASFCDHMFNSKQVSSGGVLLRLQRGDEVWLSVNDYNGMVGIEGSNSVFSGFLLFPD
T2 sequence (P02745 23-245 limits assumed, chain 1 of 3): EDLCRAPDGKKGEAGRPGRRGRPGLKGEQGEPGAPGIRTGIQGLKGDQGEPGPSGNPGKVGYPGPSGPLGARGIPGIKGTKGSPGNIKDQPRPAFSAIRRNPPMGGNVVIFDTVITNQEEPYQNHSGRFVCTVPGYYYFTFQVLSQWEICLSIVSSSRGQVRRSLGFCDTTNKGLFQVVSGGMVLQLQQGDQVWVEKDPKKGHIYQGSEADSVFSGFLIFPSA
T2 sequence (P02746 28-253 limits assumed, chain 2 of 3): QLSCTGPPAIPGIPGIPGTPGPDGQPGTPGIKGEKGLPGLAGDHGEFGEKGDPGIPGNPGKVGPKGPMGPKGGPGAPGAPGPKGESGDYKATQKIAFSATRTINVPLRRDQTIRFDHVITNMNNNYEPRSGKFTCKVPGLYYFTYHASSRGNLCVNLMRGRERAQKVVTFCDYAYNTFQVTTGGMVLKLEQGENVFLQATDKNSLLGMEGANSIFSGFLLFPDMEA
T2 sequence (P02747 29-245 limits assumed, chain 3 of 3): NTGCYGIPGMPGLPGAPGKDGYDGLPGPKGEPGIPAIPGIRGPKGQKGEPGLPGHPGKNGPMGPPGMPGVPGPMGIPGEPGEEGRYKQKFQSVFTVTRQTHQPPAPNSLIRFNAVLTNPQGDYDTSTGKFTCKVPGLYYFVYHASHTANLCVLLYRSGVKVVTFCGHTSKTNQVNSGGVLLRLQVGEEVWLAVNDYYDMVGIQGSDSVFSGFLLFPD

B1: murine anti-human C1q monoclonal antibody M1 (antibody)
chain 1: QVQLQQPGAELVKPGASVKLSCKSSGYHFTSYWMHWVKQRPGQGLEWIGVIHPNSGSINYNEKFESKATLTVDKSSSTAYMQLSSLTSEDSAVYYCAGERDSTEVLPMDYWGQGTSVTVSS
chain 2: DVQITQSPSYLAASPGETITINCRASKSINKYLAWYQEKPGKTNKLLIYSGSTLQSGIPSRFSGSGSGTDFTLTISSLEPEDFAMYYCQQHNEYPLTFGAGTKLELK
Mouse C1q [1]
  Kd: 0.0323 nM
  koff: 5.84e-05 s⁻¹
  kon: 1.81e+06 M⁻¹ s⁻¹
Human C1q [2]
  Kd: 0.0128 nM
  koff: 6.31e-05 s⁻¹
  kon: 5.18e+06 M⁻¹ s⁻¹
Mouse C1q [3]
  Kd: < 0.1 nM
Human C1q [4]
  Kd: < 0.1 nM
